Data set [1] in a line: Assay for triolein lipase activity of recombinant enzymes. In kind it is biochemical. Conditions: peak fractions from Co2+ TALON affinity column. How it is done: Assay for Triolein Lipase Activity—Sample fractions were incubated in 85 mM potassium phosphate, pH 7.0 containing 2 mM EDTA and 2 mM DTT for 15 min at 37° C. in the presence of a suspension of 100 microM [9,10-^3H(N)]-triolein (100 microCi/micromol) in 25 microM egg yolk lecithin, and 100 microM sodium taurocholate. In some reactions, BEL was added at the indicated concentrations and incubated with enzyme at room temperature for 3 min prior to the addition of radiolabeled substrate. After extraction of radiolabeled reaction products and remaining substrate into butanol, samples were spotted on TLC plates, overlaid with oleic acid standard, dried, and developed in chloroformlmethanol/NH4OH (65:25:5). The region of the plate corresponding to the oleic acid standard (visualized by iodine staining) was scraped into scintillation vials and quantified by liquid scintillation spectrometry.

The nature of data set [2]: Assay for calcium-independent phospholipase A2 activity of recombinant enzymes. It counts as biochemical. Particulars: for calcium-independent PLA2 activity: Sf9 cytosol and membrane fractions, 1-palmitoyl-2-[1-14C]-oleoyl-sn-glycerol-3-phosphocholine, relative to control; for PLA2 hydrolysis rate: affinity purified, 30 min. An excerpt:
[…] Reactions were terminated by addition of 100 microliters of butanol and extraction of the radiolabeled product and remaining substrate into the butanol layer by vigorous vortexing. Samples were spotted on LK6 Silica Gel 60 Å TLC plates, overlaid with oleic acid standard, dried, and developed in petroleum etherlethyl etherlacetic acid (70:30:1). The region of the plate corresponding to the oleic acid standard (visualized by iodine staining) was scraped into scintillation vials and quantified by liquid scintillation spectrometry.

Where [3] appears, read: 1-palmitoyl-2-[1-14C]-arachidonyl-sn-glycerol-3-phosphocholine.
The mark [4] stands for this setting: 1-palmitoyl-2-[1-14C]-linoleoyl-sn-glycerol-3-phosphocholine.

Entries after “also recorded” stand apart in the source; their conditions may differ.

B1: iPLA2zeta(His)6: recombinant human calcium-independent phospholipase A2 zeta (TTS-2.2, SEQ ID NO: 2) expressed in Sf9 cells (protein, listed as Homo sapiens)
chain: MFPREKTWNISFAGCGFLGVYYVGVASCLREHAPFLVANATHIYGASAGALTATALVTGVCLGEAGAKFIEVSKEARKRFLGPLHPSFNLVKIIRSFLLKVLPADSHEHASGRLGISLTRVSDGENVIISHFNSKDELIQANVCSGFIPVYCGLIPPSLQGVRYVDGGISDNLPLYELKNTITVSPFSGESDICPQDSSTNIHELRVTNTSIQFNLRNLYRLSKALFPPEPLVLREMCKQGYRDGLRFLQRNGLLNRPNPLLALPPARPHGPEDKDQAVESAQAEDYSQLPGEDHILEHLPARLNEALLEACVEPTDLLTTLSNMLPVRLATAMMVPYTLPLESALSFTIRLLEWLPDVPEDIRWMKEQTGSICQYLVMRAKRKLGRHLPSRLPEQVELRRVQSLPSVPLSCAAYREALPGWMRNNLSLGDALAKWEECQRQLLLGLFCTNVAFPPEALRMRAPADPAPAPADPASPQHQPAGPAPLLSTPAPEARPVIGALGLHHHHHH
modifications: C-terminal His6 tag
For the molecule B1, the “triolein lipase specific activity” value in data set [1] is recorded as 9 nmol oleic acid·min^−1·mg^−1 protein. In data set [2], the “calcium-independent PLA2 activity” value is “did not yield detectable amounts; also recorded: did not display measurable iPLA2 activity”. The figures for the PLA2 hydrolysis rate in data set [2] (setting [3]) and in data set [2] (setting [4]) were 119±6 pmol arachidonic acid·min^31 1·mg protein^−1 and 57±19 pmol linoleic acid·min^−1·mg protein^−1, respectively.

B2: iPLA2epsilon(His)6: recombinant human calcium-independent phospholipase A2 epsilon (adiponutrin, SEQ ID NO: 1) expressed in Sf9 cells (protein, listed as Homo sapiens)
chain: MYDAERGWSLSFAGCGFLGFYHVGATRCLSEHAPHLLRDARMLFGASAGALHCVGVLSGIPLEQTLQVLSDLVRKARSRNIGIFHPSFNLSKFLRQGLCKCLPANVHQLISGKIGISLTRVSDGENVLVSDFRSKDEVVDALVCSCFIPFYSGLIPPSFRGVRYVDGGVSDNVPFIDAKTTITVSPFYGEYDICPKVKSTNFLHVDITKLSLRLCTGNLYLLSRAFVPPDLKVLGEICLRGYLDAFRFLEEKGICNRPQPGLKSSSEGMDPEVAMPSWANMSLDSSPESAALAVRLEGDELLDHLRLSILPWDESILDTLSPRLATALSEEMKDKGGYMSKICNLLPIRIMSYVMLPCTLPVESAIAIVQRLVTWLPDMPDDVLWLQWVTSQVFTRVLMCLLPASRSQMPVSSQQASPCTPEQDWPCWTPCSPEGCPAETKAEATPRSILRSSLNFFLGNKVPAGAEGLSTFPSFSLEKSLHHHHHH
modifications: C-terminal His6 tag
Take B2: in data set [1], the “triolein lipase specific activity” value is 8 nmol oleic acid·min^−1·mg^−1 protein. In data set [2], the “calcium-independent PLA2 activity” value is listed as 20-50 pmol·min^−1·mg protein^−1. The PLA2 hydrolysis rate in data set [2] (setting [3]) is 100±4 pmol arachidonic acid·min^31 1·mg protein^−1; in data set [2] (setting [4]), 57±3 pmol linoleic acid·min^−1·mg protein^−1.

The record behind these values is patent US7473541B2, “Identification, cloning, expression, and purification of three novel human calcium-independent phospholipase A2 family members possessing triacylglycerol lipase and acylglycerol transacylase activities” (priority 2004, dated 2009).
